Measurements as given in article PMC4038265.
One block for each substance: values may come before it.

Experiments:
Experiment in all cases: SEC + other: dynamic light scattering
[1] = target: G. stearothermophilus GerD M36P (Geobacillus stearothermophilus)
[2] = target: G. stearothermophilus GerD M138P (Geobacillus stearothermophilus)
[3] = target: G. stearothermophilus GerD ΔH01-02 (Geobacillus stearothermophilus)
[4] = target: G. stearothermophilus GerD ΔH5-8 (Geobacillus stearothermophilus)
[5] = target: G. stearothermophilus GerD D118A (Geobacillus stearothermophilus)
[6] = target: G. stearothermophilus GerD R148A (Geobacillus stearothermophilus)
[7] = target: G. stearothermophilus GerD Q122A (Geobacillus stearothermophilus)
[8] = target: G. stearothermophilus GerD M111P (Geobacillus stearothermophilus)
[9] = target: G. stearothermophilus GerD F86P (Geobacillus stearothermophilus)
[10] = target: G. stearothermophilus GerD ΔH6-8 (Geobacillus stearothermophilus)

Substance: G. stearothermophilus GerD ΔH01-02 (from UniProt A0ACH1E844 60-180) (domain or fragment)
stoichiometry N [3]: 3

Substance: G. stearothermophilus GerD D118A (from UniProt A0ACH1E844 1-195) (natural protein)
stoichiometry N [5]: 3

Substance: G. stearothermophilus GerD M111P (from UniProt A0ACH1E844 1-195) (natural protein)
stoichiometry N [8]: 3

Substance: G. stearothermophilus GerD F86P (from UniProt A0ACH1E844 1-195) (natural protein)
stoichiometry N [9]: 3

Second part, the substance after the results:

stoichiometry N [1]: 3
Substance: G. stearothermophilus GerD M36P (from UniProt A0ACH1E844 1-195) (natural protein)

stoichiometry N [2]: 3
Substance: G. stearothermophilus GerD M138P (from UniProt A0ACH1E844 1-195) (natural protein)

stoichiometry N [4]: 3
Substance: G. stearothermophilus GerD ΔH5-8 (from UniProt A0ACH1E844 1-120) (domain or fragment)

stoichiometry N [6]: 3
Substance: G. stearothermophilus GerD R148A (from UniProt A0ACH1E844 1-195) (natural protein)

stoichiometry N [7]: 3
Substance: G. stearothermophilus GerD Q122A (from UniProt A0ACH1E844 1-195) (natural protein)

stoichiometry N [10]: 3
Substance: G. stearothermophilus GerD ΔH6-8 (from UniProt A0ACH1E844 1-133) (domain or fragment)
